# Laboratory results as given in publication PMC4263767, “IL-28B is a Key Regulator of B- and T-Cell Vaccine Responses against Influenza” (PLoS Pathogens, 2014).
# Tested on: PBMCs from healthy volunteers
# Experiment: Cytokine release by H1N1-stimulated healthy volunteer PBMCs, 5 days (luminex)
# Assay type: cell-based, human
# [1] = with IL-28B, 5-day H1N1, HV PBMCs n=9, median (IQR)
molecule,measurement,setting,value
"IL-28B: recombinant IL-28B, a member of the interferon (IFN)-λ family (protein, left off: His tag, end not stated, kept, recombinant IL-28B, a member of the interferon (IFN)-λ family) VPVARLRGALPDARGCHIAQFKSLSPQELQAFKRAKDALEESLLLKDCKCRSRLFPRTWDLRQLQVRERPVALEAELALTLKVLEATADTDPALGDVLDQPLHTLHHILSQLRACIQPQPTAGPRTRGRLHHWLHRLQEAPKKESPGCLEASVTFNLFRLLTRDLNCVASGDLCV",production of B-cell trophic and Th2 cytokines (in words),"5-day H1N1, n = 9","significant decrease in the production of cytokines trophic for B-cells such as GRO, Fractalkine, and Th2-cytokines (IL-4, IL-5, IL-9, and IL-13)"
same,"IFN-α2, ratio IL28/no IL28","5-day H1N1, p=0.004",1.7
same,"sIL2Ra, ratio IL28/no IL28","5-day H1N1, p=0.004",0.6
same,"Fractalkine, ratio IL28/no IL28","5-day H1N1, p=0.008",0.3
same,"GRO, ratio IL28/no IL28","5-day H1N1, p=0.008",0.0
same,"IL-9, ratio IL28/no IL28","5-day H1N1, p=0.008",0.2
same,"sCD40L, ratio IL28/no IL28","5-day H1N1, p=0.01",0.4
same,"IL-5, ratio IL28/no IL28","5-day H1N1, p=0.02",0.0
same,"IL-13, ratio IL28/no IL28","5-day H1N1, p=0.02",0.6
same,"IL-4, ratio IL28/no IL28","5-day H1N1, p=0.03",0.5
same,"IL-6, ratio IL28/no IL28","5-day H1N1, p=0.03",1.3
same,"TGF-α, ratio IL28/no IL28","5-day H1N1, p=0.03",1.3
same,"IL-1β, ratio IL28/no IL28","5-day H1N1, p=0.04",1.9
same,"IP-10, ratio IL28/no IL28","5-day H1N1, p=0.08",0.3
same,"FLT3, ratio IL28/no IL28","5-day H1N1, p=0.11",0.5
same,"IL-3, ratio IL28/no IL28","5-day H1N1, p=0.16",0.3
same,"TNF-β, ratio IL28/no IL28","5-day H1N1, p=0.16",0.6
same,"IL-15, ratio IL28/no IL28","5-day H1N1, p=0.17",0.9
same,"MCP-3, ratio IL28/no IL28","5-day H1N1, p=0.25",1.1
same,"PDGF AA, ratio IL28/no IL28","5-day H1N1, p=0.25",1.0
same,"FGF2, ratio IL28/no IL28","5-day H1N1, p=0.31",0.8
same,"GM-CSF, ratio IL28/no IL28","5-day H1N1, p=0.38",0.7
same,"IFN-γ, ratio IL28/no IL28","5-day H1N1, p=0.43",0.9
same,"IL-12p40, ratio IL28/no IL28","5-day H1N1, p=0.44",0.7
same,"MIP-1β, ratio IL28/no IL28","5-day H1N1, p=0.46",1.2
same,"Eotaxin, ratio IL28/no IL28","5-day H1N1, p=0.47",0.5
same,"MCP-1, ratio IL28/no IL28","5-day H1N1, p=0.55",0.4
same,"TNF-α, ratio IL28/no IL28","5-day H1N1, p=0.55",1.0
same,"IL-12p70, ratio IL28/no IL28","5-day H1N1, p=0.64",0.7
same,"IL-17, ratio IL28/no IL28","5-day H1N1, p=0.69",0.2
same,"MIP-1α, ratio IL28/no IL28","5-day H1N1, p=0.74",1.1
same,"RANTES, ratio IL28/no IL28","5-day H1N1, p=0.74",1.2
same,"G-CSF, ratio IL28/no IL28","5-day H1N1, p=0.75",1.0
same,"IL-7, ratio IL28/no IL28","5-day H1N1, p=0.75",1.0
same,"IL-1α, ratio IL28/no IL28","5-day H1N1, p=0.82",1.1
same,"IL-10, ratio IL28/no IL28","5-day H1N1, p=0.82",1.0
same,"VEGF, ratio IL28/no IL28","5-day H1N1, p=0.82",1.2
same,"IL-1ra, ratio IL28/no IL28","5-day H1N1, p=0.84",1.1
same,"IL-2, ratio IL28/no IL28","5-day H1N1, p=0.84",2.0
same,"IL-8, ratio IL28/no IL28","5-day H1N1, p=0.95",0.9
same,"PDGF AB/BB, ratio IL28/no IL28","5-day H1N1, p=0.95",1.3
same,"EGF, ratio IL28/no IL28","5-day H1N1, p=1.00",1.0
same,"MDC, ratio IL28/no IL28","5-day H1N1, p=1.00",1.0
same,"Th2-cytokines (in words, abstract)",in vitro,"suppressed Th2-cytokines (e.g. IL-4, IL-5, and IL-13)"
same,EGF,[1],3.7 (3.7-3.7) pg/mL
same,Eotaxin,[1],3.2 (3.2-6.9) pg/mL
same,FGF2,[1],13.1 (3.8-19.2) pg/mL
same,FLT3,[1],4.0 (3.2-9.4) pg/mL
same,Fractalkine,[1],4.2 (0.6-10.7) pg/mL
same,G-CSF,[1],3.2 (3.2-4.2) pg/mL
same,GM-CSF,[1],358.9 (3.2-480.7) pg/mL
same,GRO,[1],3.6 (3.6-3.6) pg/mL
same,IFN-α2,[1],2262.0 (808.2-3663.0) pg/mL
same,IFN-γ,[1],6028.0 (3513.0-9802.0) pg/mL
same,IL-1ra,[1],376.6 (3.2-838.8) pg/mL
same,IL-1α,[1],15.1 (7.8-18.6) pg/mL
same,IL-1β,[1],16.8 (6.8-29.2) pg/mL
same,IL-2,[1],16.5 (0.6-60.4) pg/mL
same,IL-3,[1],0.8 (0.6-3.5) pg/mL
same,IL-4,[1],16.2 (6.1-33.1) pg/mL
same,IL-5,[1],0.6 (0.6-8.3) pg/mL
same,IL-6,[1],215.5 (69.4-864.5) pg/mL
same,IL-7,[1],3.2 (3.2-3.2) pg/mL
same,IL-8,[1],1308.0 (789.8-1567.0) pg/mL
same,IL-9,[1],1.3 (0.6-6.7) pg/mL
same,IL-10,[1],2597.0 (2063.0-4353.0) pg/mL
same,IL-12p40,[1],3.2 (3.2-6.1) pg/mL
same,IL-12p70,[1],1.6 (1.0-2.3) pg/mL
same,IL-13,[1],96.8 (0.6-126.7) pg/mL
same,IL-15,[1],2.7 (1.2-3.0) pg/mL
same,IL-17,[1],0.6 (0.6-30.7) pg/mL
same,IP-10,[1],219.8 (3.2-2804.0) pg/mL
same,MCP-1,[1],53.8 (7.9-145.3) pg/mL
same,MCP-3,[1],9988.0 (8889.0-12741.0) pg/mL
same,MDC,[1],16.0 (16.0-27.2) pg/mL
same,MIP-1α,[1],5759.0 (2283.0-6915.0) pg/mL
same,MIP-1β,[1],3575.0 (1795.0-5820.0) pg/mL
same,PDGF AA,[1],0.6 (0.6 – 0.6) pg/mL
same,PDGF AB/BB,[1],8.9 (1.3-18.2) pg/mL
same,RANTES,[1],3640.0 (1941.0-6677.0) pg/mL
same,TGF-α,[1],11.8 (9.7-17.0) pg/mL
same,TNF-α,[1],297.0 (3.1-449.6) pg/mL
same,TNF-β,[1],12.0 (1.0-27.4) pg/mL
same,VEGF,[1],34.6 (15.6-46.3) pg/mL
same,sCD40L,[1],253.0 (140.1-456.3) pg/mL
same,sIL2Ra,[1],192.2 (140.8-236.1) pg/mL
